Patent publication US20140242093A1, “METHODS AND COMPOSITIONS FOR MODULATING THE INNATE IMMUNE RESPONSE AND/OR MYOGENESIS IN A MAMMALIAN SUBJECT” (FRED HUTCHINSON CANCER RESEARCH CENTER, priority 2011, published 2014)

Tested on: control human primary myoblasts
Test: Expression microarray of primary myoblasts transduced with lentivirus carrying DUX4-fl, DUX4-s or GFP
Description: Primary human myoblasts were collected and cultured as previously described (Snider et al., 2010). Primary myoblasts were maintained at or below 70% confluency for proliferation. For differentiation, cells were allowed to reach 95-100% confluency in growth medium. Once confluency was reached, the cells were changed to differentiation medium (F10 media supplemented with 1% horse serum, 10 μg/mL insulin, and 10 μg/mL transferrin, penicillin/streptomycin) and maintained for 4 days. Human RD cells were grown in DMEM in 10% bovine calf serum (Hyclone) and penicillin/streptomycin. The primary myoblasts were transduced with lentivirus carrying DUX-fl, DUX4- or GFP (MOI=15).
Expression microarrays were performed on the transduced cells at 24 hours after transduction as follows. […] Samples were analyzed by Illumina Human Whole Genome microarrays. Probe intensities were corrected, normalized, and summarized by the Lumi package of Bioconductor (Du et al., 2008). Differentially expressed genes were identified by the LIMMA package of Bioconductor (Wettenhall and Smyth, 2004). Gene set enrichment analysis (GSEA) was performed using the Bioconductor GOstats package (Falcon and Gentleman, 2007).

B1: DUX4-s: short splice form of DUX4 (SEQ ID NO:112), keeps the double-homeobox domains, lacks the C-terminal activation domain (protein, listed as Homo sapiens)
chain: MALPTPSDSTLPAEARGRGRRRRLVWTPSQSEALRACFERNPYPGIATRERLAQAIGIPEPRVQIWFQNERSRQLRQHRRESRPWPGRRGPPEGRRKRTAVTGSQTALLLRAFEKDRFPGIAAREELARETGLPESRIQIWFQNRRARHPGQGGRAPAQV
In the case of B1, the SHMT2 fc (Refseq NM_005412.4) is reported as 0.2615, the STAT2 expression fc (Refseq NM_005419.2, cultured human skeletal muscle) is reported as 0.1861 and the EOMES expression fc (Refseq NM_005442.2) is reported as 0.06484. It also gave a TOM1 fc (Refseq NM_005488.1) of 4.81E−05, an HLA-B expression fc (Refseq NM_005514.5, cultured human skeletal muscle) of 0.3367 and an HLA-E fc (Refseq NM_005516.4) of 0.8147. The IFI16 expression fc (Refseq NM_005531.1, cultured human skeletal muscle) was 0.6846, the IFI27 expression fc (Refseq NM_005532.3, cultured human skeletal muscle) was 0.2746 and the IFI35 expression fc (Refseq NM_005533.2, cultured human skeletal muscle) was 0.9169. For the same molecule, the IRS1 fc (Refseq NM_005544.1) was 0.2753, the KLC1 expression fc (Refseq NM_005552.4) was −0.06609 and the RGS4 expression fc (Refseq NM_005613.3) was −0.4837. For the same molecule, the SGK expression fc (Refseq NM_005627.2) was −0.1104, the TAF4B expression fc (Refseq NM_005640.1) was −0.0444 and the “fc of TERF2 (expression array)” value (Refseq NM_005652.2) was 0.3314. For the same molecule, the “fc of REEP5 (expression array)” value (Refseq NM_005669.4) was −1.138, the “fc of HIPK3 (expression array)” value (Refseq NM_005734.3) was 1.555 and the ARIH1 expression fc (Refseq NM_005744.2) was 0.784. For the same molecule, the “fc of NAMPT (expression array)” value (Refseq NM_005746.2) was 1.21, the LHFPL2 fc (Refseq NM_005779.1) was −0.1437 and the STX6 expression fc (Refseq NM_005819.4) was −0.4696. The “fc of RCAN2 (expression array)” value (Refseq NM_005822.2) was −1.005, the MFGE8 fc (Refseq NM_005928.1) was 0.03254 and the MT1X expression fc (Refseq NM_005952.2, cultured human skeletal muscle) was 0.3162. For the same molecule, the SNAI1 expression fc (Refseq NM_005985.2) was −0.03657, the RBM12 expression fc (Refseq NM_006047.4) was −0.3748 and the TRIM22 expression fc (Refseq NM_006074.3, cultured human skeletal muscle) was −0.01965. It also gave a CBARA1 expression fc (Refseq NM_006077.2) of −0.1543, a TUBB2C expression fc (Refseq NM_006088.5) of −0.5391 and an LASP1 fc (Refseq NM_006148.1) of −0.4552. For the same molecule, the NFE2L2 fc (Refseq NM_006164.2) was 0.329, the OAS3 expression fc (Refseq NM_006187.2, cultured human skeletal muscle) was 0.8654 and the “fc of PDGFRL (expression array)” value (Refseq NM_006207.1) was 1.203. For the same molecule, the PSME1 fc (Refseq NM_006263.2) was 0.2775, the STK3 expression fc (Refseq NM_006281.2) was −0.215 and the THY1 fc (Refseq NM_006288.2) was −0.6444. For the same molecule, the TNFAIP3 expression fc (Refseq NM_006290.2, cultured human skeletal muscle) was 0.2793, the HSPB3 expression fc (Refseq NM_006308.1) was −0.7934 and the NXF1 expression fc (Refseq NM_006362.4) was −0.3456. The “fc of ATG7 (expression array)” value (Refseq NM_006395.1) was 0.2083, the SLC34A2 expression fc (Refseq NM_006424.2) was −0.03231 and the TXNRD2 fc (Refseq NM_006440.3) was −0.1666. For the same molecule, the “fc of MXD4 (expression array)” value (Refseq NM_006454.2) was −0.9168, the ARID3B expression fc (Refseq NM_006465.2) was −0.07455 and the TXNIP expression fc (Refseq NM_006472.2, cultured human skeletal muscle) was −0.01014. For the same molecule, the ZNF217 expression fc (Refseq NM_006526.2) was −0.3262, the FAM189B fc (Refseq NM_006589.2) was 0.04019 and the “fc of TCFL5 (expression array)” value (Refseq NM_006602.2) was 0.0336. The RFPL2 expression fc (Refseq NM_006605.1) was 0.03122, the “fc of NES (expression array)” value (Refseq NM_006617.1) was −1.118 and the HSPH1 expression fc (Refseq NM_006644.2) was −0.4879. It also gave an HCP5 fc (Refseq NM_006674.2) of 0.1443, a UGP2 fc (Refseq NM_006759.3) of 0.1108 and an IFI44L expression fc (Refseq NM_006820.1, cultured human skeletal muscle) of 0.4651. For the same molecule, the “fc of CKAP4 (expression array)” value (Refseq NM_006825.2) was 0.03538, the “fc of ILVBL (expression array)” value (Refseq NM_006844.3) was −0.2803 and the KDELR3 fc (Refseq NM_006855.2) was −0.444. The “fc of GMPR (expression array)” value (Refseq NM_006877.2) was 1.36, the SLC2A3 expression fc (Refseq NM_006931.1) was 0.1012 and the “fc of HSPA13 (expression array)” value (Refseq NM_006948.4) was 1.34. It also gave a ZBTB25 fc (Refseq NM_006977.2) of 0.3463, an ADAMTS1 fc (Refseq NM_006988.3) of 0.1765 and a C1Oorf10 expression fc (Refseq NM_007021.2, cultured human skeletal muscle) of 0.1432. For the same molecule, the “fc of DNAJB4 (expression array)” value (Refseq NM_007034.3) was 0.413, the KATNA1 expression fc (Refseq NM_007044.2) was 0.1132 and the UBL3 expression fc (Refseq NM_007106.2) was −0.807. For the same molecule, the TESK2 expression fc (Refseq NM_007170.2) was 0.1269, the NUP50 expression fc (Refseq NM_007172.3) was 1.035 and the “fc of PACSIN2 (expression array)” value (Refseq NM_007229.1) was −0.3253. The DUSP12 expression fc (Refseq NM_007240.1) was 0.09869.
